Results: the supplement of paper PMC10126150
± gives the standard deviation of the averaged measurements.

System: ATP
Assay: switch fluorescence ratio, 500 uM ATP over buffer (Cy3 cluster intensity, sum of 5 cycles each) (fold (ratio)); higher = stronger signal-on switching upon ATP binding; sequences stand for … in TCGTCGGCAGCGTCAGATGTGTATAAGAGACAGTTTTTTTTTTTTTTTTTTTTTTTTT…TC
Settings: aptamer strand: ATP DNA aptamer (quencher-CACCTGGGGGAGTATTGCGGAGGAAGG + anchor), 100 nM annealed; ATP concentration: 500 uM
Outline: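 Five buffer/ATP imaging cycles were run on Cy3-labelled switching-strand clusters on a modified Illumina MiSeq flow-cell, with NaOH stripping and re-annealing between cycles. In each cycle, clusters annealed to 100 nM quencher-labelled ATP aptamer were imaged in selection buffer, then after 15 min with 500 uM ATP at 22 °C. Per cluster, the fluorescence ratio is summed target-cycle over summed buffer-cycle Cy3 intensity, averaged per switch-domain sequence. Only clusters within 100-1000 RFU were kept.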
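Note: ATP exposure 15 min at 22 °C before imaging.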

TAAAGGGATC and TAAAGGGGCG are within error of each other in switch fluorescence ratio: 0.978 ± 0.017 for the first, 1.01 ± 0.031 for the second.

TAAAGGGGGC and TAAAGGGGTG are within error of each other in switch fluorescence ratio: 1.05 ± 0.017 for the first, 1.01 ± 0.038 for the second.

TAAAGGGTTA and TAAAGGGTTT are within error of each other in switch fluorescence ratio: 0.985 ± 0.014 for the first, 0.982 ± 0.021 for the second.

TAAAGGTCAT and TAAAGGTTTT are within error of each other in switch fluorescence ratio: 0.9959 ± 0.0018 for the first, 0.974 ± 0.04 for the second.

TAAAGTGATT and TAAAGTGGCG are within error of each other in switch fluorescence ratio: 0.988 ± 0.025 for the first, 1.05 ± 0.039 for the second.

TAAAGTTAGG and TAAATAATAT are within error of each other in switch fluorescence ratio: 1 ± 0.011 for the first, 1.01 ± 0.019 for the second.

Going from TAAATACTCT to TAAATCAGTA, the switch fluorescence ratio falls from 1.16 ± 0.032 to 0.9888 ± 0.0048.

TAAATCCGGG and TAAATCGTGC are within error of each other in switch fluorescence ratio: 1 ± 0.022 for the first, 1.022 ± 0.0064 for the second.

TAAATGAATT and TAAATGCCGG are within error of each other in switch fluorescence ratio: 1.05 ± 0.096 for the first, 1.14 ± 0.26 for the second.

TAAATGCGGG and TAAATGGAAA are within error of each other in switch fluorescence ratio: 0.975 ± 0.039 for the first, 0.999 ± 0.051 for the second.

TAAATGGAGG and TAAATGGGGG are within error of each other in switch fluorescence ratio: 0.9891 ± 0.0061 for the first, 0.979 ± 0.034 for the second.

Compared with TAAATGGTGG, TAAATGGTTT is higher in switch fluorescence ratio: 0.977 ± 0.015 for the first, 1.02 ± 0.023 for the second.

First: TAAATGTGCG
Second: TAAATGTTAC
The switch fluorescence ratio of the first is lower: 0.996 ± 0.031 for the first, 1.0644 ± 0.0005 for the second.

TAAATTCAGA and TAAATTGCGG are within error of each other in switch fluorescence ratio: 0.994 ± 0.031 for the first, 0.966 ± 0.013 for the second.

TAAATTGGGG and TAAATTTAAT are within error of each other in switch fluorescence ratio: 0.983 ± 0.024 for the first, 0.982 ± 0.034 for the second.

Compared with TAACAATTCC, TAACACATTT is lower in switch fluorescence ratio: 1.26 ± 0.013 for the first, 0.98 ± 0.059 for the second.

Going from TAACGAAGGA to TAACGCCATC, the switch fluorescence ratio rises from 1.03 ± 0.051 to 1.51 ± 0.035.

TAACGCTGTT and TAACGGAAAA are within error of each other in switch fluorescence ratio: 1.01 ± 0.0068 for the first, 1 ± 0.053 for the second.

TAACGGAGAC and TAACGGAGGT are within error of each other in switch fluorescence ratio: 1.35 ± 0.32 for the first, 1.02 ± 0.014 for the second.

TAACGGCATT and TAACGGGGGA are within error of each other in switch fluorescence ratio: 1.08 ± 0.037 for the first, 1.01 ± 0.062 for the second.

Compared with TAACGTAACA, TAACGTATGG is lower in switch fluorescence ratio: 1.26 ± 0.068 for the first, 1.03 ± 0.021 for the second.

Compared with TAACTAAAGG, TAACTACGAG is higher in switch fluorescence ratio: 0.9971 ± 0.0099 for the first, 1.07 ± 0.011 for the second.

Going from TAACTAGGGG to TAACTATAAG, the switch fluorescence ratio falls from 1.49 ± 0.042 to 1 ± 0.018.

Going from TAACTATTCC to TAACTGGCGT, the switch fluorescence ratio falls from 1.23 ± 0.082 to 0.991 ± 0.04.

TAACTGTAGG and TAACTGTTCC are within error of each other in switch fluorescence ratio: 1.02 ± 0.033 for the first, 1.12 ± 0.11 for the second.

First: TAAGAAAAAA
Second: TAAGAAAACT
The switch fluorescence ratio of the first is lower: 1.017 ± 0.0075 for the first, 1.36 ± 0.22 for the second.

TAAGAACGAT and TAAGAAGGCG are within error of each other in switch fluorescence ratio: 0.987 ± 0.053 for the first, 0.9734 ± 0.0047 for the second.

Compared with TAAGAAGTTT, TAAGACGCAA is higher in switch fluorescence ratio: 0.996 ± 0.028 for the first, 1.62 ± 0.12 for the second.

First: TAAGACGTCC
Second: TAAGAGACGA
The switch fluorescence ratio of the first is higher: 1.016 ± 0.0088 for the first, 0.98 ± 0.024 for the second.

TAAGAGACGC and TAAGAGACGG are within error of each other in switch fluorescence ratio: 1.014 ± 0.0061 for the first, 0.991 ± 0.056 for the second.

TAAGAGATGT and TAAGAGGGGC are within error of each other in switch fluorescence ratio: 0.978 ± 0.034 for the first, 1 ± 0.037 for the second.

TAAGATAAAT and TAAGATGGG are within error of each other in switch fluorescence ratio: 1 ± 0.021 for the first, 1.01 ± 0.019 for the second.

TAAGATGTCA and TAAGATTTTT are within error of each other in switch fluorescence ratio: 1.02 ± 0.034 for the first, 1.01 ± 0.032 for the second.

First: TAAGCAAAAG
Second: TAAGCATGGA
The switch fluorescence ratio of the first is higher: 1.19 ± 0.1 for the first, 1.04 ± 0.013 for the second.

Compared with TAAGCCATTA, TAAGCCGAGG is lower in switch fluorescence ratio: 1.01 ± 0.0038 for the first, 0.987 ± 0.016 for the second.

First: TAAGCGAGTG
Second: TAAGCGATCT
The switch fluorescence ratio of the first is lower: 0.9832 ± 0.0032 for the first, 1.0192 ± 0.00013 for the second.

TAAGCGGGCT and TAAGCGTTGT are within error of each other in switch fluorescence ratio: 0.973 ± 0.024 for the first, 0.98 ± 0.054 for the second.

TAAGCTCAAT and TAAGCTGGAG are within error of each other in switch fluorescence ratio: 0.979 ± 0.012 for the first, 1.07 ± 0.14 for the second.

First: TAAGCTGGGG
Second: TAAGCTTGGC
The switch fluorescence ratio of the first is lower: 0.9861 ± 0.0052 for the first, 1.02 ± 0.026 for the second.

TAAGCTTTTG and TAAGGAAAAG are within error of each other in switch fluorescence ratio: 1.025 ± 0.0084 for the first, 1.01 ± 0.05 for the second.

First: TAAGGACAGG
Second: TAAGGAGAAT
The switch fluorescence ratio of the first is higher: 1.047 ± 0.0049 for the first, 0.9676 ± 0.0046 for the second.

TAAGGCAAGG and TAAGGCAATT are within error of each other in switch fluorescence ratio: 1.03 ± 0.021 for the first, 1.06 ± 0.041 for the second.

TAAGGCGGTT and TAAGGCTGTT are within error of each other in switch fluorescence ratio: 0.984 ± 0.021 for the first, 0.953 ± 0.023 for the second.

TAAGGGAAAA and TAAGGGAGTT are within error of each other in switch fluorescence ratio: 0.977 ± 0.023 for the first, 0.9874 ± 0.0095 for the second.

TAAGGGATGG and TAAGGGATGT are within error of each other in switch fluorescence ratio: 0.973 ± 0.043 for the first, 0.995 ± 0.049 for the second.

TAAGGGGACG and TAAGGGGGAC are within error of each other in switch fluorescence ratio: 1.02 ± 0.023 for the first, 1.01 ± 0.053 for the second.

TAAGGGTACG and TAAGGGTGGC are within error of each other in switch fluorescence ratio: 1.03 ± 0.058 for the first, 1.04 ± 0.035 for the second.

TAAGGTATGA and TAAGGTATTT are within error of each other in switch fluorescence ratio: 1.002 ± 0.0076 for the first, 1.01 ± 0.023 for the second.

First: TAAGGTTATG
Second: TAAGGTTTAT
The switch fluorescence ratio of the first is lower: 0.973 ± 0.017 for the first, 0.9979 ± 0.0072 for the second.

TAAGTATAAT and TAAGTATGAC are within error of each other in switch fluorescence ratio: 0.999 ± 0.017 for the first, 0.982 ± 0.032 for the second.

TAAGTATTGG and TAAGTGCCAC are within error of each other in switch fluorescence ratio: 0.977 ± 0.037 for the first, 1.01 ± 0.024 for the second.

TAAGTGGAAG and TAAGTGGGGC are within error of each other in switch fluorescence ratio: 1.01 ± 0.029 for the first, 0.957 ± 0.085 for the second.

TAAGTGGTTG and TAAGTGTTGC are within error of each other in switch fluorescence ratio: 0.989 ± 0.052 for the first, 1 ± 0.037 for the second.

TAAGTTGTGC and TAATAAAAGG are within error of each other in switch fluorescence ratio: 1.02 ± 0.15 for the first, 0.998 ± 0.041 for the second.

TAATAAACAA and TAATAAGAGA are within error of each other in switch fluorescence ratio: 1 ± 0.024 for the first, 0.985 ± 0.015 for the second.

First: TAATAAGGAG
Second: TAATAAGTTT
The switch fluorescence ratio of the first is lower: 1.004 ± 0.0074 for the first, 1.0262 ± 0.00033 for the second.

Going from TAATACGTTA to TAATACTCCT, the switch fluorescence ratio rises from 1.197 ± 0.0026 to 2.05 ± 0.073.

First: TAATAGAAGG
Second: TAATAGCATA
The switch fluorescence ratio of the first is lower: 0.977 ± 0.0098 for the first, 1.03 ± 0.033 for the second.

TAATAGGCAG and TAATAGGGGT are within error of each other in switch fluorescence ratio: 1.01 ± 0.029 for the first, 1 ± 0.018 for the second.

TAATAGGTTT and TAATAGTAAG are within error of each other in switch fluorescence ratio: 1.1 ± 0.22 for the first, 0.996 ± 0.053 for the second.

TAATAGTGAT and TAATAGTTAC are within error of each other in switch fluorescence ratio: 0.983 ± 0.018 for the first, 1.01 ± 0.041 for the second.

First: TAATCAGAGG
Second: TAATCCGCTT
The switch fluorescence ratio of the first is lower: 0.994 ± 0.019 for the first, 2.49 ± 0.2 for the second.

TAATCGATGG and TAATCGGGGG are within error of each other in switch fluorescence ratio: 1.009 ± 0.0012 for the first, 1.04 ± 0.043 for the second.

First: TAATCTAGAA
Second: TAATCTGGCT
The switch fluorescence ratio of the first is higher: 1.019 ± 0.0017 for the first, 0.993 ± 0.011 for the second.

Going from TAATGACTCA to TAATGATTTC, the switch fluorescence ratio falls from 1.034 ± 0.008 to 0.992 ± 0.011.

TAATGCGATT and TAATGCGCAA are within error of each other in switch fluorescence ratio: 1.04 ± 0.017 for the first, 2.56 ± 1.6 for the second.

First: TAATGGACAA
Second: TAATGGCTT
The switch fluorescence ratio of the first is higher: 1.04 ± 0.017 for the first, 1.003 ± 0.0022 for the second.

Compared with TAATGGGCGT, TAATGGGGTC is lower in switch fluorescence ratio: 1 ± 0.012 for the first, 0.9801 ± 0.0029 for the second.

TAATGGGTGA and TAATGGTTGA are within error of each other in switch fluorescence ratio: 1.03 ± 0.016 for the first, 1.02 ± 0.029 for the second.

TAATGGTTGG and TAATGTGTGG are within error of each other in switch fluorescence ratio: 0.99283 ± 0.00085 for the first, 0.9885 ± 0.0094 for the second.

TAATGTTCTT and TAATTAGGAA are within error of each other in switch fluorescence ratio: 1 ± 0.033 for the first, 1.02 ± 0.03 for the second.

TAATTATGAG and TAATTCCGGG are within error of each other in switch fluorescence ratio: 0.9902 ± 0.0071 for the first, 1.01 ± 0.013 for the second.

First: TAATTGGGCT
Second: TAATTGGTGC
The switch fluorescence ratio of the first is lower: 0.975 ± 0.016 for the first, 1.049 ± 0.0075 for the second.

TAATTTAAGG and TAATTTAGTA are the same in switch fluorescence ratio: 0.993 ± 0.039 for the first, 0.9929 ± 0.0073 for the second.

TAATTTATCA and TAATTTGGAG are within error of each other in switch fluorescence ratio: 1.01 ± 0.035 for the first, 1 ± 0.039 for the second.

TAATTTGGCT and TAATTTGTTA are within error of each other in switch fluorescence ratio: 1.01 ± 0.035 for the first, 1 ± 0.02 for the second.

In the case of TAATTTTTT, the switch fluorescence ratio is reported as 1 ± 0.038.
